Test results published in patent US9378557B2, “Microfluidic device for assessing object/test material interactions” (Dublin City University, priority 2008, dated 2016).

Tested on: platelets
Experiment: Shear-activated platelet translocation on von Willebrand Factor in the microfluidic device (blood perfusion assay, platelet tracking software)
Assay type: cell-based
Conditions: whole blood treated with ReoPro 20 μg/ml for 20 minutes; vWF-coated test area; arterial shear rate 1500 s-1; compared to normal untreated platelets (FIG. 13)
Excerpt: The microfluidic device was used to measure the shear-activated response of platelets in the presence of von Willebrand Factor (vWF). In particular, the effect of platelet specific GPIIb-IIIa antagonist (abciximab, ReoPro) on platelet function was examined. Abciximab (trade name ReoPro, distributed by Eli Lilly) is a platelet aggregation inhibitor used mainly during and after coronary artery procedures to prevent platelets from sticking together, by platelet GPIIb-IIIa-mediated aggregation, and subsequent thrombus formation.
Blood Draw: Blood was obtained from volunteers by venopuncture using a 19-g needle attached to a polypropylene syringe containing anticoagulant solution. […]
Matrix deposition on microfluidic device: The components of the flow cells were assembled using a jig to ensure patterned psa layers are aligned. […] Using silastic laboratory tubing, von Willebrand Factor solution (˜100 ug/ml protein solution in Phosphate Buffered Saline solution (PBS) was injected to fill the flow cell. The platform was then left to sit for 2 hours to immobilise the vWF on the glass base. (The flow cells were blocked with 1% BSA solution (in PBS) for 1 hour at room temperature). Deposition of von Willebrand Factor was by coating through adsorption. The platforms were rinsed with PBS solution and were then ready for perfusion assays. […]

B1: abciximab (antibody, chains of the INN, looked up, V domains shown)
VH: EVQLQQSGTVLARPGASVKMSCEASGYTFTNYWMHWVKQRPGQGLEWIGAIYPGNSDTSYIQKFKGKAKLTAVTSTTSVYMELSSLTNEDSAVYYCTLYDGYYVFAYWGQGTLVTVSA
VL: EIVLTQSPVTLSVTPGDSVSLSCRASRDISNNLHWFQQTSHESPRLLIKYASQSMSGIPSRFSGSGSGTDFTLSINSVETEDFGMYFCQQTNSWPYTFGGGTKLEIK
modifications: Fab
notes: platelet specific GPIIb-IIIa antagonist
Question: B1 was tested. Which average velocity did it give?
Answer: increased

Question: What about the escape percentage of the same molecule?
Answer: increased
